Key:
[1] = biological target: MOR (Modulator Of Repression) of bacteriophage TP901-1, wild type, untagged (bacteriophage TP901-1) (UniProt O48504); assay: cross-linking; 0.05% glutaraldehyde, room temperature, 0-60 min, 20 mM HEPES pH 7.5, 200 mM NaCl (100 mM salt by p-0027); CI about 20 uM, MOR 4 or 20 uM, alone or together; SDS PAGE, coomassie
[2] = biological target: T1, CI-NTD89-His6 (CI N-terminal domain 1-80 plus linker 81-89) (bacteriophage TP901-1, UniProt O48503 1-89); assay: SEC; Superdex 75 Prep Grad, 20 mM Tris, 100 mM NaCl, pH 7.4; CI-NTD89 and MOR mixed in about 4:1 molar ratio; conditions: both partners purified
T1 construct: CI repressor, lactococcal bacteriophage TP901-1, N-terminal domain (1-80) and flexible linker (81-89); also called CI-NTD_(1-89); source: E. coli BL21 (pET30a(+)), purified (His-Trap, SEC)
T1 sequence (looked up): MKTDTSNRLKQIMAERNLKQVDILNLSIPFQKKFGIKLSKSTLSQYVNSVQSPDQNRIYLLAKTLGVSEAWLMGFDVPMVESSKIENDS

[3] = biological target: the molecule itself; assay: cross-linking; 0.05% glutaraldehyde, room temperature, 0-60 min, 20 mM HEPES pH 7.5, 200 mM NaCl (100 mM salt by p-0027); CI about 20 uM, MOR 4 or 20 uM, alone or together; SDS PAGE, coomassie

Molecule “MOR (Modulator Of Repression) of bacteriophage TP901-1, wild type, untagged (from UniProt O48504 1-72) (natural protein)” has a stoichiometry N [1] of 2.

B1: MOR (1-72) released from GST-MOR by thrombin (natural protein, bacteriophage TP901-1, UniProt O48504 1-72, looked up)
chain: MSYDYSSLLGKITEKCGTQYNFAIAMGLSERTVSLKLNDKVTWKDDEILKAVHVLELNPQDIPKYFFNAKVH
notes: MOR (Modulator Of Repression), lactococcal bacteriophage TP901-1, residues 1-72; also called cleaved MOR; source: E. coli BL21 (pGEX4-2, GST-MOR), purified (GST-Trap, thrombin cleavage on the column, SEC)
In the case of B1, the “stoichiometry N” value [2] is reported as 1.

B2: CI repressor of bacteriophage TP901-1, wild type, untagged (natural protein, UniProt O48503 1-180, looked up)
chain: MKTDTSNRLKQIMAERNLKQVDILNLSIPFQKKFGIKLSKSTLSQYVNSVQSPDQNRIYLLAKTLGVSEAWLMGFDVPMVESSKIENDSENIEETITVMKKLEEPRQKVVLDTAKIQLKEQDEQNKVKQIEDYRLSDEYLEEQISKASAYGGGQLNDNDKEFFKRLLKNTLKEKIDKGDL
notes: CI repressor, lactococcal bacteriophage TP901-1; also called native CI repressor; full length CI; source: E. coli AJ159 (cI in expression vector pUHE23-2), in cell extract; also purified (eluted from the DNA pellet with 1 M NaCl; pooled fractions from Superdex gel filtration)
B2 was tested, and the “stoichiometry N” value [3] was 2.
